Results on 44 molecules are retold here after patent publication US20210388087A1 (Chugai, published 2021).

The labels stand for the following.
B1: H183/L072 VL S93T (antibody, name in Kabat numbering, V domains shown)
VH: QVQLVESGGGLVQPGRSLRLSCAASGFTFSNAWMHWVRQAPGKGLEWVAQIKDKGNAYAAYYAPSVKGRFTISRDDSKNSIYLQMNSLKTEDTAVYYCHYVHYASASTVLPAFGVDAWGQGTTVTVSS
VL: DIVMTQSPLSLPVTPGEPASISCQASQELVHMNRNTYLHWYQQKPGQAPRLLIYKVSNRFPGVPDRFSGSGSGTDFTLKISRVEAEDVGVYYCAQGTTVPFTFGQGTKLEIK
notes: Dual-Ig
B2: H183/L072 VL T92S (antibody, name in Kabat numbering, V domains shown)
VH: B1 VH
VL: B1 VL with T97S, T98S
notes: Dual-Ig
B3: H183/L072 VL T31Y (antibody, name in Kabat numbering, V domains shown)
VH: B1 VH
VL: B1 VL with T36Y, T98S
notes: Dual-Ig
B4: H183/L072 VL S93V (antibody, name in Kabat numbering, V domains shown)
VH: B1 VH
VL: B1 VL with T98V
notes: Dual-Ig
B5: H183/L072 VL T97I (antibody, name in Kabat numbering, V domains shown)
VH: B1 VH
VL: B1 VL with T98S, T102I
notes: Dual-Ig
B6: H183/L072 VL T92L (antibody, name in Kabat numbering, V domains shown)
VH: B1 VH
VL: B1 VL with T97L, T98S
notes: Dual-Ig
B7: H183/L072 VL T31S (antibody, name in Kabat numbering, V domains shown)
VH: B1 VH
VL: B1 VL with T36S, T98S
notes: Dual-Ig
B8: H183/L072 VL T92P (antibody, name in Kabat numbering, V domains shown)
VH: B1 VH
VL: B1 VL with T97P, T98S
notes: Dual-Ig
B9: H183/L072 VL T92E (antibody, name in Kabat numbering, V domains shown)
VH: B1 VH
VL: B1 VL with T97E, T98S
notes: Dual-Ig
B10: H183/L072 VL T92A (antibody, name in Kabat numbering, V domains shown)
VH: B1 VH
VL: B1 VL with T97A, T98S
notes: Dual-Ig
B11: H183/L072 VL T31E (antibody, name in Kabat numbering, V domains shown)
VH: B1 VH
VL: B1 VL with T36E, T98S
notes: Dual-Ig
B12: H183/L072 VL T92R (antibody, name in Kabat numbering, V domains shown)
VH: B1 VH
VL: B1 VL with T97R, T98S
notes: Dual-Ig
B13: H183/L072 VL T92W (antibody, name in Kabat numbering, V domains shown)
VH: B1 VH
VL: B1 VL with T97W, T98S
notes: Dual-Ig
B14: H183/L072 VL T31I (antibody, name in Kabat numbering, V domains shown)
VH: B1 VH
VL: B1 VL with T36I, T98S
notes: Dual-Ig
B15: H183/L072 VL T92F (antibody, name in Kabat numbering, V domains shown)
VH: B1 VH
VL: B1 VL with T97F, T98S
notes: Dual-Ig
B16: H183/L072 VL T31K (antibody, name in Kabat numbering, V domains shown)
VH: B1 VH
VL: B1 VL with T36K, T98S
notes: Dual-Ig
B17: H183/L072 VL T31P (antibody, name in Kabat numbering, V domains shown)
VH: B1 VH
VL: B1 VL with T36P, T98S
notes: Dual-Ig
B18: H183/L072 VL T31R (antibody, name in Kabat numbering, V domains shown)
VH: B1 VH
VL: B1 VL with T36R, T98S
notes: Dual-Ig
B19: H183/L072 VL T31V (antibody, name in Kabat numbering, V domains shown)
VH: B1 VH
VL: B1 VL with T36V, T98S
notes: Dual-Ig
B20: H183/L072 VL T92Q (antibody, name in Kabat numbering, V domains shown)
VH: B1 VH
VL: B1 VL with T97Q, T98S
notes: Dual-Ig
B21: H183/L072 VL T97H (antibody, name in Kabat numbering, V domains shown)
VH: B1 VH
VL: B1 VL with T98S, T102H
notes: Dual-Ig
B22: H183/L072 VL T92N (antibody, name in Kabat numbering, V domains shown)
VH: B1 VH
VL: B1 VL with T97N, T98S
notes: Dual-Ig
B23: H183/L072 VL T92G (antibody, name in Kabat numbering, V domains shown)
VH: B1 VH
VL: B1 VL with T97G, T98S
notes: Dual-Ig
B24: H183/L072 VL T97A (antibody, name in Kabat numbering, V domains shown)
VH: B1 VH
VL: B1 VL with T98S, T102A
notes: Dual-Ig
B25: H183/L072 VL T97K (antibody, name in Kabat numbering, V domains shown)
VH: B1 VH
VL: B1 VL with T98S, T102K
notes: Dual-Ig
B26: H183/L072 VL T92H (antibody, name in Kabat numbering, V domains shown)
VH: B1 VH
VL: B1 VL with T97H, T98S
notes: Dual-Ig
B27: H183/L072 VL T31D (antibody, name in Kabat numbering, V domains shown)
VH: B1 VH
VL: B1 VL with T36D, T98S
notes: Dual-Ig
B28: H183/L072 VL T92K (antibody, name in Kabat numbering, V domains shown)
VH: B1 VH
VL: B1 VL with T97K, T98S
notes: Dual-Ig
B29: H183/L072 VL T92M (antibody, name in Kabat numbering, V domains shown)
VH: B1 VH
VL: B1 VL with T97M, T98S
notes: Dual-Ig
B30: H183/L072 VL T31F (antibody, name in Kabat numbering, V domains shown)
VH: B1 VH
VL: B1 VL with T36F, T98S
notes: Dual-Ig
B31: H183/L072 VL T97L (antibody, name in Kabat numbering, V domains shown)
VH: B1 VH
VL: B1 VL with T98S, T102L
notes: Dual-Ig
B32: H183/L072 VL T97G (antibody, name in Kabat numbering, V domains shown)
VH: B1 VH
VL: B1 VL with T98S, T102G
notes: Dual-Ig
B33: H183/L072 VL T92I (antibody, name in Kabat numbering, V domains shown)
VH: B1 VH
VL: B1 VL with T97I, T98S
notes: Dual-Ig
B34: H183/L072 VL T92D (antibody, name in Kabat numbering, V domains shown)
VH: B1 VH
VL: B1 VL with T97D, T98S
notes: Dual-Ig
B35: H183/L072 VL T97E (antibody, name in Kabat numbering, V domains shown)
VH: B1 VH
VL: B1 VL with T98S, T102E
notes: Dual-Ig
B36: H183/L072 VL T92V (antibody, name in Kabat numbering, V domains shown)
VH: B1 VH
VL: B1 VL with T97V, T98S
notes: Dual-Ig
B37: H183/L072 VL S93W (antibody, name in Kabat numbering, V domains shown)
VH: B1 VH
VL: B1 VL with T98W
notes: Dual-Ig
B38: H183/L072 VL T97F (antibody, name in Kabat numbering, V domains shown)
VH: B1 VH
VL: B1 VL with T98S, T102F
notes: Dual-Ig
B39: H183/L072 VL T97D (antibody, name in Kabat numbering, V domains shown)
VH: B1 VH
VL: B1 VL with T98S, T102D
notes: Dual-Ig
B40: H183/L072 VL T31L (antibody, name in Kabat numbering, V domains shown)
VH: B1 VH
VL: B1 VL with T36L, T98S
notes: Dual-Ig
B41: H183/L072 VL T31W (antibody, name in Kabat numbering, V domains shown)
VH: B1 VH
VL: B1 VL with T36W, T98S
notes: Dual-Ig
B42: H183/L072 VL T31A (antibody, name in Kabat numbering, V domains shown)
VH: B1 VH
VL: B1 VL with T36A, T98S
notes: Dual-Ig
B43: H183/L072 VL T31Q (antibody, name in Kabat numbering, V domains shown)
VH: B1 VH
VL: B1 VL with T36Q, T98S
notes: Dual-Ig
B44: H183/L072 VL T31M (antibody, name in Kabat numbering, V domains shown)
VH: B1 VH
VL: B1 VL with T36M, T98S
notes: Dual-Ig

Changes are numbered by the printed parent chain.

In the test the target is T1, Human CD137 ECD (human).
T1 construct: entry includes C-terminal His-tag and biotin acceptor peptide; also called human CD137 extracellular domain; 4-1BB
T1 sequence (chain, as listed by the source limits assumed): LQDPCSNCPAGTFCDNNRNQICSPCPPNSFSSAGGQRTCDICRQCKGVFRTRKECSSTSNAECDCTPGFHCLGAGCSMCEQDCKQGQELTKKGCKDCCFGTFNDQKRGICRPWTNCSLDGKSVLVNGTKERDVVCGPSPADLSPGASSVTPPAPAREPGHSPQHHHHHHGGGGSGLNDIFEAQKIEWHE
As to the kind of experiment: Biacore SPR, vs parent H183/L072.
As to B1, the “fold change of affinity” value turned out to be 1.1 fold.

Turning to B2, the “fold change of affinity” value was found to be 0 fold.

Regarding B3, the “fold change of affinity” value was determined as 0.1 fold.

For the molecule B4, the “fold change of affinity” value amounted to 1.1 fold.

Consider B5, for which the “fold change of affinity” value amounted to 1.3 fold.

As to B6, the “fold change of affinity” value is 0.2 fold.

Regarding B7, the “fold change of affinity” value worked out at 0.4 fold.

With B8, the “fold change of affinity” value is 0 fold.

As to B9, the “fold change of affinity” value amounted to 0 fold.

Consider B10, for which the “fold change of affinity” value came to 0.5 fold.

On to B11, for which the “fold change of affinity” value was 0.4 fold.

For the molecule B12, the “fold change of affinity” value turned out to be 0 fold.

Turning to B13, the “fold change of affinity” value was 0 fold.

Regarding B14, the “fold change of affinity” value was found to be 0.9 fold.

Consider B15, for which the “fold change of affinity” value was found to be 0 fold.

As for B16, the “fold change of affinity” value amounted to 0.4 fold.

Consider B17, for which the “fold change of affinity” value came out at 0.4 fold.

Take B18: the “fold change of affinity” value is 0.4 fold.

Take B19: the “fold change of affinity” value is 1 fold.

As for B20, the “fold change of affinity” value came to 0 fold.

B21: the “fold change of affinity” value was determined as 0.6 fold.

Consider B22, for which the “fold change of affinity” value was found to be 0 fold.

With B23, the “fold change of affinity” value was determined as 0.4 fold.

With B24, the “fold change of affinity” value was 0.6 fold.

On to B25, for which the “fold change of affinity” value was found to be 1.1 fold.

For the molecule B26, the “fold change of affinity” value was 0 fold.

Take B27: the “fold change of affinity” value came to 0.1 fold.

For the molecule B28, the “fold change of affinity” value is 0 fold.

Take B29: the “fold change of affinity” value came out at 0.4 fold.

Turning to B30, the “fold change of affinity” value is 0.2 fold.

In the case of B31, the “fold change of affinity” value is 0.3 fold.

B32: the “fold change of affinity” value is 0.6 fold.

As to B33, the “fold change of affinity” value was found to be 0.1 fold.

Regarding B34, the “fold change of affinity” value stood at 0 fold.

B35: the “fold change of affinity” value was 0.4 fold.

On to B36, for which the “fold change of affinity” value was 0.3 fold.

B37: the “fold change of affinity” value worked out at 1.2 fold.

For the molecule B38, the “fold change of affinity” value worked out at 0.3 fold.

Consider B39, for which the “fold change of affinity” value was determined as 0 fold.

B40: the “fold change of affinity” value turned out to be 0.5 fold.

Turning to B41, the “fold change of affinity” value is 0.1 fold.

Take B42: the “fold change of affinity” value is 0.4 fold.

Regarding B43, the “fold change of affinity” value amounted to 0.5 fold.

In the case of B44, the “fold change of affinity” value was found to be 0.3 fold.
